Data published in the Human Domainome abundance scans (Beltran et al. 2025).
± gives the uncertainty stated by the source.

B1: Proto-oncogene vav, residues 782 to 842; numbered along this chain, P15498 (parent)
chain: KYFGTAKARYDFCARDRSELSLKEGDIIKILNKKGQQGWWRGEIYGRVGWFPANYVEEDYS

Variants of: B1
Assay: abundance fitness (aPCA) (normalised: wild type 0, dead -1); higher = more abundant; growth selection in yeast, the domain comes from the species named
Conditions: Homo sapiens
For KYFGTAKARYDFCARDRSELSLKEGDIIKILNKKGQQGWWRGEISGRVGWFPANYVEEDYS, the abundance fitness was 0.164 ± 0.047.
KYFGTAKARYDFCARDRSELSLKEGDIIKILNKKGQQGWWRGEIDGRVGWFPANYVEEDYS gave an abundance fitness of 0.147 ± 0.079.
KYFGTAKARYDFCARDRSELSLKEGDIIKILNKKGQQGWWRGEIPGRVGWFPANYVEEDYS showed an abundance fitness of -0.211 ± 0.072.
With KYFGTAKARYDFCARDRSELSLKEGDIIKILNKKGQQGWWRGEITGRVGWFPANYVEEDYS the abundance fitness was -0.021 ± 0.053.
For KYFGTAKARYDFCARDRSELSLKEGDIIKILNKKGQQGWWRGEIKGRVGWFPANYVEEDYS, the abundance fitness was 0.115 ± 0.065.
Work on KYFGTAKARYDFCARDRSELSLKEGDIIKILNKKGQQGWWRGEINGRVGWFPANYVEEDYS yielded an abundance fitness of 0.081 ± 0.074.
KYFGTAKARYDFCARDRSELSLKEGDIIKILNKKGQQGWWRGEIVGRVGWFPANYVEEDYS gave an abundance fitness of -0.074 ± 0.052.
For KYFGTAKARYDFCARDRSELSLKEGDIIKILNKKGQQGWWRGEIEGRVGWFPANYVEEDYS, the abundance fitness was 0.103 ± 0.065.
Variant KYFGTAKARYDFCARDRSELSLKEGDIIKILNKKGQQGWWRGEILGRVGWFPANYVEEDYS has an abundance fitness of 0.036 ± 0.043.
KYFGTAKARYDFCARDRSELSLKEGDIIKILNKKGQQGWWRVEIYGRVGWFPANYVEEDYS gave an abundance fitness of -0.837 ± 0.14.
In the case of KYFGTAKARYDFCARDRSELSLKEGDIIKILNKKGQQGWWRYEIYGRVGWFPANYVEEDYS, the abundance fitness is reported as -0.618 ± 0.26.
Variant KYFGTAKARYDFCARDRSELSLKEGDIIKILNKKGQQGWWRGMIYGRVGWFPANYVEEDYS has an abundance fitness of -0.389 ± 0.12.
In the case of KYFGTAKARYDFCARDRSELSLKEGDIIKILNKKGQQGWWRGDIYGRVGWFPANYVEEDYS, the abundance fitness is reported as -0.559 ± 0.17.
Variant KYFGTAKARYDFCARDRSELSLKEGDIIKILNKKGQQGWWRGRIYGRVGWFPANYVEEDYS has an abundance fitness of -0.31 ± 0.076.
KYFGTAKARYDFCARDRSELSLKEGDIIKILNKKGQQGWWRGKIYGRVGWFPANYVEEDYS showed an abundance fitness of -0.155 ± 0.14.
In the case of KYFGTAKARYDFCARDRSELSLKEGDIIKILNKKGQQGWWRGGIYGRVGWFPANYVEEDYS, the abundance fitness is reported as -0.702 ± 0.12.
Variant KYFGTAKARYDFCARDRSELSLKEGDIIKILNKKGQQGWWRGHIYGRVGWFPANYVEEDYS has an abundance fitness of -0.993 ± 0.42.
In the case of KYFGTAKARYDFCARDRSELSLKEGDIIKILNKKGQQGWWRGYIYGRVGWFPANYVEEDYS, the abundance fitness is reported as -0.682 ± 0.16.
Work on KYFGTAKARYDFCARDRSELSLKEGDIIKILNKKGQQGWWRGFIYGRVGWFPANYVEEDYS yielded an abundance fitness of -0.825 ± 0.47.
Work on KYFGTAKARYDFCARDRSELSLKEGDIIKILNKKGQQGWWRGSIYGRVGWFPANYVEEDYS yielded an abundance fitness of -0.126 ± 0.07.
KYFGTAKARYDFCARDRSELSLKEGDIIKILNKKGQQGWWRGWIYGRVGWFPANYVEEDYS showed an abundance fitness of -0.782 ± 0.16.
KYFGTAKARYDFCARDRSELSLKEGDIIKILNKKGQQGWWRGTIYGRVGWFPANYVEEDYS showed an abundance fitness of -0.367 ± 0.084.
In the case of KYFGTAKARYDFCARDRSELSLKEGDIIKILNKKGQQGWWRGAIYGRVGWFPANYVEEDYS, the abundance fitness is reported as -0.197 ± 0.086.
In the case of KYFGTAKARYDFCARDRSELSLKEGDIIKILNKKGQQGWWRGLIYGRVGWFPANYVEEDYS, the abundance fitness is reported as -0.525 ± 0.086.
Work on KYFGTAKARYDFCARDRSELSLKEGDIIKILNKKGQQGWWRGQIYGRVGWFPANYVEEDYS yielded an abundance fitness of -0.019 ± 0.12.
For KYFGTAKARYDFCARDRSELSLKEGDIIKILNKKGQQGWWRGCIYGRVGWFPANYVEEDYS, the abundance fitness was -0.343 ± 0.1.
KYFGTAKARYDFCARDRSELSLKEGDIIKILNKKGQQGWWRGVIYGRVGWFPANYVEEDYS showed an abundance fitness of -0.411 ± 0.073.
Variant KYFGTAKARYDFCARDRSELSLKEGDIIKILNKKGQQGWWRGNIYGRVGWFPANYVEEDYS has an abundance fitness of -0.36 ± 0.17.
KYFGTAKARYDFCARDRSELSLKEGDIIKILNKKGQQGWWRGEIYGVVGWFPANYVEEDYS gave an abundance fitness of -0.367 ± 0.049.
KYFGTAKARYDFCARDRSELSLKEGDIIKILNKKGQQGWWRGEIYGYVGWFPANYVEEDYS showed an abundance fitness of -0.503 ± 0.089.
With KYFGTAKARYDFCARDRSELSLKEGDIIKILNKKGQQGWWRGEIYGGVGWFPANYVEEDYS the abundance fitness was -0.628 ± 0.081.
With KYFGTAKARYDFCARDRSELSLKEGDIIKILNKKGQQGWWRGEIYGWVGWFPANYVEEDYS the abundance fitness was -0.841 ± 0.11.
With KYFGTAKARYDFCARDRSELSLKEGDIIKILNKKGQQGWWRGEIYGNVGWFPANYVEEDYS the abundance fitness was -0.276 ± 0.14.
In the case of KYFGTAKARYDFCARDRSELSLKEGDIIKILNKKGQQGWWRGEIYGMVGWFPANYVEEDYS, the abundance fitness is reported as -0.393 ± 0.16.
Work on KYFGTAKARYDFCARDRSELSLKEGDIIKILNKKGQQGWWRGEIYGAVGWFPANYVEEDYS yielded an abundance fitness of -0.268 ± 0.051.
Variant KYFGTAKARYDFCARDRSELSLKEGDIIKILNKKGQQGWWRGEIYGFVGWFPANYVEEDYS has an abundance fitness of -0.788 ± 0.16.
With KYFGTAKARYDFCARDRSELSLKEGDIIKILNKKGQQGWWRGEIYGHVGWFPANYVEEDYS the abundance fitness was -0.226 ± 0.087.
With KYFGTAKARYDFCARDRSELSLKEGDIIKILNKKGQQGWWRGEIYGQVGWFPANYVEEDYS the abundance fitness was -0.065 ± 0.069.
Work on KYFGTAKARYDFCARDRSELSLKEGDIIKILNKKGQQGWWRGEIYGDVGWFPANYVEEDYS yielded an abundance fitness of -0.3 ± 0.09.
Variant KYFGTAKARYDFCARDRSELSLKEGDIIKILNKKGQQGWWRGEIYGLVGWFPANYVEEDYS has an abundance fitness of -0.493 ± 0.043.
In the case of KYFGTAKARYDFCARDRSELSLKEGDIIKILNKKGQQGWWRGEIYGTVGWFPANYVEEDYS, the abundance fitness is reported as -0.313 ± 0.12.
KYFGTAKARYDFCARDRSELSLKEGDIIKILNKKGQQGWWRGEIYGKVGWFPANYVEEDYS gave an abundance fitness of -0.051 ± 0.16.
KYFGTAKARYDFCARDRSELSLKEGDIIKILNKKGQQGWWRGEIYGPVGWFPANYVEEDYS gave an abundance fitness of -0.86 ± 0.12.
With KYFGTAKARYDFCARDRSELSLKEGDIIKILNKKGQQGWWRGEIYGSVGWFPANYVEEDYS the abundance fitness was -0.297 ± 0.053.
